Where “and” joins values, the source holds several entries; their conditions need not be identical. Identical values can stand only once. Like-named read-outs stand apart in the source and are kept apart here.
T1: GDNF (Homo sapiens, UniProt P39905)
T1 construct: purchased PeproTech, Ltd. or R&D Systems, Inc
T1 sequence (P39905 78-211 limits assumed): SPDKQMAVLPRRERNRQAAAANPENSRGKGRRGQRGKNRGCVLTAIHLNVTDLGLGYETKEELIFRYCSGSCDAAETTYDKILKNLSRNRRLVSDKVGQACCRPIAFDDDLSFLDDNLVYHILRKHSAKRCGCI


Tests used:
[1] = biological target: T1, GDNF; experiment: SPR: direct binding of heparin or desulfated heparins to GDNF cuvette
Description: (§1) Specifically desulfated heparins (Takano et al., 1998) were used to assess the involvement of different sulfate groups in the GDNF-heparin interaction by following direct binding to GDNF cuvette, or by competing out GDNF binding to the heparin-BSA cuvette. Dissociation constants were determined from direct binding using increasing GDNF concentrations and by fitting the data to R=(Rmax*C)/(Kd+C) for heparin. For desulfated heparins, the best fit was achieved using equation R=(Rmax1*C)/(Kd1+C)+(Rmax2*C)/(Kd2+C), where Kd1 and Kd2 are apparent dissociation constants derived for two heparin sites of different affinities with maximum equilibrium response Rmax1 and Rmax2, respectively.

[2] = biological target: T1, GDNF; experiment: SPR: competition of GDNF binding to heparin-BSA cuvette by heparin and desulfated heparins; settings: competing out GDNF binding to heparin-BSA cuvette
Description: as §1

[3] = biological target: T2, syndecan-3 ectodomain (Rattus norvegicus, UniProt P33671); experiment: SPR (IAsys): syndecan-3 ectodomain interaction with GFLs cuvette; format: binding; settings: syndecan-3 ectodomain in solution
T2 construct: purified as an ectodomain from early postnatal rat brains; from tissue; host or cells: early postnatal rat brain
T2 sequence (P33671 45-387 limits assumed): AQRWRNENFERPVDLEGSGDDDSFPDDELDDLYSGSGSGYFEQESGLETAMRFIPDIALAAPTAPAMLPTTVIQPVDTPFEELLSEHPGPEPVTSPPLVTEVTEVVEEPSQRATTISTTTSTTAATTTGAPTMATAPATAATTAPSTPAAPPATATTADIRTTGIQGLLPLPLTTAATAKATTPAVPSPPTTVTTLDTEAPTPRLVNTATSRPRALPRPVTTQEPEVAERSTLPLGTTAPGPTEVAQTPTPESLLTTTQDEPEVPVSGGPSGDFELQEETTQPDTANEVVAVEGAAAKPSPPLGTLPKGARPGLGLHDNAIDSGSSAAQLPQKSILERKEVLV
Description: (§2) The affinities of GFLs for heparin and heparin-like molecules (e.g. syndecan-3) were determined by plasmon surface resonance using the IAsys system (Affinity Sensors, Cambridge, UK). Planar aminosilane cuvettes (Affinity Sensors) were used for protein coupling to avoid problems with mass transport, which occur frequently with matrix surfaces. In the initial approach, heparin-BSA was immobilized to the cuvette surface using the manufacturer's instructions and different ligand concentrations were used to determine association (ka) and dissociation (kdis) rates using the IAsys Fastfit software. The dissociation constant Kd was determined from the binding dynamics as […], or from equilibrium response (R) using a simple Langmuir fit: R=(Rmax*C)/(Kd+C), where C is the ligand concentration. […] The dissociation constants were determined from binding dynamics and equilibrium response. The same cuvettes were used to test binding of heparan sulfate proteoglycan syndecan-3, which was purified as an ectodomain from early postnatal rat brains by HB-GAM affinity chromatography (Raulo et al., 1994).
(§3) Binding was analyzed using IAsys cuvettes with immobilized heparin-BSA or GFLs. The dissociation constant Kd was determined from dynamics of association and dissociation (Kd=kdis/ka), or from equilibrium response R (R=(Rmax*C)/(Kd+C), where C is ligand concentration).

[4] = SPR (IAsys): heparin interaction with GFLs cuvette; format: binding; settings: for ka (×10^−5) (M^−1s^−1) / kdis: heparin in solution; for Kd = kdis/ka: from dynamics
Description: as §2, §3

[5] = SPR (IAsys): GFLs interaction with heparin-BSA cuvette; format: binding; settings: for ka (×10^−5) (M^−1s^−1) / kdis: GFL in solution; for Kd = kdis/ka: from dynamics; for Kd: from equilibrium response
Description: as §2, §3

[6] = tested on: SHEP cells; experiment: SHEP cell adhesion and spreading assay on immobilized proteins; format: cell-based, human; settings: for adherence and spreading of SHEP cells on immobilized protein: protein immobilized on plastic microplate
Description: Cell adhesion assays were essentially performed as described elsewhere (Weinacker et al., 1994). To prepare protein-coated surfaces the protein of interest (10 μg/ml in PBS) was applied to 96-well ELISA (Greiner) plates or to glass cover slips for 12-18 hours at +4° C. After incubation, the surfaces were washed with PBS and blocked with 1% globulin-free BSA for two hours. Some GDNF coated surfaces were incubated with 20 μg/ml of G-90 (Amgen) GDNF function-blocking antibodies (Xu et al., 1998) for 2 hours at room temperature.
Subconfluent SHEP cells were harvested in PBS supplemented with 10 mM EDTA for 5 min at 37° C. Cells were washed with incubation buffer (RPMI 1640, 0.2% BSA, 15 mM HEPES pH 7.2) and 10000-40000 cells/well plated on the protein coated surface. Plates were centrifuged for 5 min at 10 g and incubated for one hour at 37° C. in 5% CO2. After incubation cells were washed with PBS, fixed with methanol supplemented with crystal violet for 15 min at room temperature and washed again with PBS. The remaining cells were counted using a Leica DMIRB inverted microscope with 10× objective in 5 fields per well.
Some cells were pretreated with heparinase III, PI-PLC (see above), 0.3 U/ml chodroitinase ABC for one hour at 37° C., 5% CO2, or with 20 μg/ml of NCAM blocking antibodies (AB5032, Chemicon Inc.) for 15-30 min on ice.
After one hour of incubation in serum-free medium unattached cells were removed by washing. The remaining cells were stained and counted on Leica DMIRB inverted microscope with a 10× objective in 5 fields per well and the resulting cell number was calculated for the whole well.
Live SHEP cells spreading on immobilized GDNF were imaged for 20 minutes using the Till imaging system with an Imago-QE digital camera (Till Photonics) equipped with heating (+37° C.) and CO2 supply (5%) chambers.

[7] = Binding of ^125I-labeled GFLs to heparin-sepharose column, step NaCl elution; settings: for NaCl concentration at elution from heparin-sepharose column: ^125I-GFLs, step NaCl gradient; for binding to heparin-sepharose column: ^125I-labeled GFLs
Description: GFL iodination was performed as described (Lindahl et al., 2001). Heparin-sepharose column (Amersham Biosciences) chromatography was performed to assess GFL binding to heparin. GDNF, ARTN, NRTN and PSPN were purchased from PeproTech, Ltd. or R&D Systems, Inc. GFLs were enzymatically labeled with carrier-free [^125I]NaI (Amersham Biosciences) by the lactoperoxidase method to a specific activity of 100000-200000 cpm/ng as described elsewhere (Lindahl et al., 2001). 15000-20000 cpm of iodinated GFLs, together with 10 μg of the same unlabeled protein as a carrier, were injected into a 1 ml heparin-sepharose column (Amersham Biosciences) in phosphate buffer pH 7.2 containing 100 mM NaCl and 10 mg/ml of BSA. After washing with 5 volumes of the same buffer, iodinated GFLs were eluted from the column by step elution (2 ml) with increasing NaCl concentration. The resulting fractions were counted on Rackbeta 1214 (LKB/Wallac) scintillation counter.

[8] = tested on: rat embryonic hippocampal neurons; experiment: Neurite outgrowth assay in E17 rat hippocampal neurons; format: cell-based; settings: E17 rat hippocampal neurons
Description: Hippocampi were dissected from E17 embryonic rat brains under the microscope and transferred to the preparation media (HBBS without Ca^2+ and Mg^2+ supplemented with 1 mM sodium pyruvate (Gibco) and buffered by 10 mM Hepes pH 7.2), then partially digested by papain and triturated in the preparation media supplemented with DNase I. Cells were washed with HBBS containing Ca^2+ and Mg^2+ and transferred to the growth media (Neurobasal media with B27 supplement, 2 mM L-glutamine, 25 μM glutamic acid and penicillin and streptomycin (Gibco)). For enzymatic treatments neurons were kept in the growth media supplemented with 0.2% BSA at +37° C. for one hour. After the treatment cells in the same media were seeded on the protein-coated cover slips (see above) and after 10 min, the media was changed for B27-free media. Neurons were incubated at +37° C., 5% CO2 for 18 hours.
For immunocytochemistry neurons were washed with PBS and fixed with 4% PFA, permeabilized with 0.1% Triton X-100 and stained with rabbit polyclonal antiserum to Protein Gene Product 9.5 (Affiniti), neuron-specific Class III tubulin-βIII clone Tuj1 antibodies (BABCO) or with antibodies against the neurofilament triplet, 13AA8 (Arumäe et al., 1993). Secondary antibodies were goat anti-rabbit or anti-mouse Alexa488-conjugated (Molecular Probes).
The immunostained cultures were viewed using the ×20 objective of a Zeiss Axioplan 2 fluorescent microscope (Zeiss). Neurons with at least two times longer than cell body diameter processes were considered process-bearing. Three cover slips were used in parallel and 100 neurons per cover slip were counted. Results were derived from 3 to 5 independent experiments.

[9] = biological target: T3, GDNF-syndecan-3 complex (UniProt P33671+P39905); experiment: Chemical cross-linking of ^125I-GDNF to C6 cells and immunoprecipitation with anti-syndecan-3; format: cell-based, rat; settings: heparin 1 μg/ml; HB-GAM 150-fold molar excess; added with ^125I-GDNF
T3 construct: the rat glioma C6 cell line, which expresses syndecan-3; endogenous in cells; host or cells: rat glioma C6 cells (syndecan-3); GDNF purchased from PeproTech or R&D Systems and iodinated
T3 sequence (P33671 45-442, one chain of several): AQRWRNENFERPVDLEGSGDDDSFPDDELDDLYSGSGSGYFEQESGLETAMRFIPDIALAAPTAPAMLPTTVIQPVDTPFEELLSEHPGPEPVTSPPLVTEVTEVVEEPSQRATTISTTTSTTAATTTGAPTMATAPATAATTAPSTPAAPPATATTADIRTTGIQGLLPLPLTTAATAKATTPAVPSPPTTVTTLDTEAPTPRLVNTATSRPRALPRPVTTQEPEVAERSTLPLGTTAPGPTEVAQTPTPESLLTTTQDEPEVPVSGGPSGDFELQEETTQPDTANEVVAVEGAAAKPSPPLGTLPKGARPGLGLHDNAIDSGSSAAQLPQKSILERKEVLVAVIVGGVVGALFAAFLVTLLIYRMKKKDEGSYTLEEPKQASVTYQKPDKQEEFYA
Description: Glioma C6 cells were plated on 6-well plates and grown to 70% confluency. Cells were incubated with 1 nM ^125I-GDNF for 2 hours in binding buffer (Dulbecco's modified Eagle's medium, 0.2% BSA and 15 mM Hepes, pH 7.2) on ice. Unbound ligand was removed by washing three times with ice-cold PBS. The chemical cross-linker ethyl-dimethyl-aminopropyl-carbodimide (EDAC) supplemented with N-hydroxysuccinimide (NHS) (Sigma) was incubated with cells for 20 min at room temperature in PBS. The reaction was quenched with TBS for 15 min and cells were lysed in lysis buffer (TBS, 1% Triton X-100, 1% NP-40, 2 mM EDTA, 1 mM PMSF and Complete protease inhibitor mixture from Roche Molecular Biochemicals). Cell lysates were immunoprecipitated with anti-syndecan-3 antibodies (Nolo et al., 1995) and resolved on 7.5% SDS-PAGE. Autoradiography was performed with BAS1500 (Fuji). For heparinase III or PI-PLC treatment cells were incubated with 10 mU/ml heparinase III or with 1 U/ml PI-PLC, respectively for one hour at 37° C., 5% CO2 before ^125I-GDNF addition.

[10] = apparent Kd from equilibrium response, read-out: Kd1
[11] = apparent Kd of second site, two-site fit, read-out: Kd2
[12] = GFLs cuvette, from equilibrium response, read-out: Kd (equilibrium)
[13] = pretreatment of cells with SFK inhibitor

Molecule | Kd [1, 10] [nM] | Kd [1, 11] | IC50 [2] [ng/mL] | Kd = kdis/ka [5] [nM] | Kd [5] [nM] | NaCl concentration at elution from heparin-sepharose column [7] [M] | binding to heparin-sepharose column [7] | ka (×10^−5) (M^−1s^−1) ([4]; GFLs cuvette) | kdis ([4]; GFLs cuvette) [s⁻¹] | ka (×10^−5) (M^−1s^−1) [5] | kdis [5] [s⁻¹] | adherence and spreading of SHEP cells on immobilized protein [6] | other results
ARTN: artemin, secreted growth factor, GDNF family ligand |  |  |  | 148 ± 39 | 187 ± 34 | 1 to 1.5 | bind strongly to heparin | 8.0 (×10^−5) M^−1s^−1 | 0.042 | 0.09 (×10^−5) M^−1s^−1 | 0.0013 | induced adherence and spreading | ka (×10^−5) (M^−1s^−1) [3]: 6.3 ± 0.7 (×10^−5) M^−1s^−1; Kd = kdis/ka ([4]; GFLs cuvette): 44.7 ± 12.3 nM; Kd [4, 12]: 13 ± 3.9 nM
CN(C)S(=O)(=O)c1ccc2c(c1)/C(=C/c1cc3c([nH]1)CCCC3)C(=O)N2 [SU6656, reference compound] |  |  |  |  |  |  |  |  |  |  |  |  | effect on SHEP cell adherence on immobilized GDNF [6, 13]: did not impair their adherence; effect on SHEP cell spreading on immobilized GDNF [6, 13]: diminished their spreading; effect of inhibitor on neurite outgrowth on immobilized GDNF [8]: prevented neurite outgrowth
6-O-desulfated heparin | 36.3 ± 4.6 | 18000 nM and 18100 nM | 1.3 |  |  |  |  |  |  |  |  |  | 
NRTN: neurturin, secreted growth factor, GDNF family ligand (protein) ARLGARPCGLRELEVRVSELGLGYASDETVLFRYCAGACEAAARVYDLGLRRLRQRRRLRRERVRAQPCCRPTAYEDEVSFLDAHSRYHTVHELSARECACV |  |  |  | 59.4 ± 6.2 | 47 ± 7 | 1.5 | bind strongly to heparin | 1.9 (×10^−5) M^−1s^−1 | 0.022 | 3.2 (×10^−5) M^−1s^−1 | 0.018 | induced adherence and spreading | ka (×10^−5) (M^−1s^−1) [3]: 7.5 ± 1.6 (×10^−5) M^−1s^−1; Kd = kdis/ka ([4]; GFLs cuvette): 114 ± 44 nM; Kd [4, 12]: 23.7 ± 7.7 nM; Kd ([4]; SPR, dynamics, read-out: dynamics-derived Kd for heparin): > 100 nM
PSPN: persephin, secreted growth factor, GDNF family ligand (protein) ALSGPCQLWSLTLSVAELGLGYASEEKVIFRYCAGSCPRGARTQHGLALARLQGQGRAHGGPCCRPTRYTDVAFLDDRHRWQRLPQLSAAACGCGG |  |  |  | 1072 ± 118 | > 1000 | 0.5 | does not | 0.02 (×10^−5) M^−1s^−1 | 0.064 | 0.87 (×10^−5) M^−1s^−1 | 0.093 | failed to adhere and spread | Kd ([4]; SPR, dynamics, read-out: Kd for heparin (dynamics)): 29100 nM; Kd ([4]; SPR, equilibrium, read-out: Kd for heparin (equilibrium)): 11100 nM; neurite outgrowth on immobilized protein ([8]; 18 hours): failed to form processes
HB-GAM: ECM molecule, another syndecan-3-specific ligand (protein) GKKEKPEKKVKKSDCGEWQWSVCVPTSGDCGLGTREGTRTGAECKQTMKTQRCKIPCNWKKQFGAECKYQFQAWGECDLNTALKTRTGSLKRALHNADCQKTVTISKPCGKLTKPKPQAESKKKKKEGKKQEKMLD |  |  |  |  |  |  |  |  |  |  |  |  | effect on ^125I-GDNF binding to syndecan-3 on C6 cells [9]: displaced

Further lines, with some results ahead:

Kd [1, 10] [nM] | Kd [1, 11] | IC50 [2] [ng/mL] | Kd = kdis/ka [5] [nM] | Kd [5] [nM] | NaCl concentration at elution from heparin-sepharose column [7] [M] | binding to heparin-sepharose column [7] | Molecule | ka (×10^−5) (M^−1s^−1) ([4]; GFLs cuvette) | kdis ([4]; GFLs cuvette) [s⁻¹] | ka (×10^−5) (M^−1s^−1) [5] | kdis [5] [s⁻¹] | adherence and spreading of SHEP cells on immobilized protein [6] | other results
35.4 ± 7.5 | 9500 nM | 4.3 |  |  |  |  | 2-O-desulfated heparin |  |  |  |  |  | 
29.1 ± 6.4 | 11400 nM | 2.3 |  |  |  |  | N-desulfated heparin |  |  |  |  |  | 

Source: patent US8034572B2, “Receptor for GDNF family ligands” (priority 2006, dated 2011)
